T1: Human PTK7 Protein, His Tag (Acro Biosystems) (human, UniProt Q13308 31-704)
T1 construct: Bought His-tagged recombinant human PTK7; also called CCK4; Tyrosine-protein kinase-like 7
T1 sequence: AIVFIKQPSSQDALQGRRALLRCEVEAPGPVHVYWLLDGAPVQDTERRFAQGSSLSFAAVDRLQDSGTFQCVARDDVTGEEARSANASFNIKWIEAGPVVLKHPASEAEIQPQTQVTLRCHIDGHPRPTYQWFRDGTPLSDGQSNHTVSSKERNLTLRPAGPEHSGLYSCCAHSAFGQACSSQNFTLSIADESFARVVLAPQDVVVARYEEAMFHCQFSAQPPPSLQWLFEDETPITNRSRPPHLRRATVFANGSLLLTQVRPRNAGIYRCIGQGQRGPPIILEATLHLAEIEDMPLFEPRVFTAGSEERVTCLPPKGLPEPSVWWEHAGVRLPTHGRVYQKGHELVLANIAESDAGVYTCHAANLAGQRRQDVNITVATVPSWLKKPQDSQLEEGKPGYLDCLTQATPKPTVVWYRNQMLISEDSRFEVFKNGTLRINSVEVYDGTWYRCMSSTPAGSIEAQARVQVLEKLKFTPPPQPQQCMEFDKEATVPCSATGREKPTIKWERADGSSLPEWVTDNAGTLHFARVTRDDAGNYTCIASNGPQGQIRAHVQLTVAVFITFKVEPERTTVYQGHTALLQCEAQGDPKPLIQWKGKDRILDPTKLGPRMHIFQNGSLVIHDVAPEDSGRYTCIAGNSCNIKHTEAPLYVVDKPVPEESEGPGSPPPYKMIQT

T2: Human PTK7 Protein, His Tag, Acro Biosystems (human, UniProt Q13308 31-704)
T2 construct: Bought recombinant protein; also called CCK4; not shown: His tag
T2 sequence: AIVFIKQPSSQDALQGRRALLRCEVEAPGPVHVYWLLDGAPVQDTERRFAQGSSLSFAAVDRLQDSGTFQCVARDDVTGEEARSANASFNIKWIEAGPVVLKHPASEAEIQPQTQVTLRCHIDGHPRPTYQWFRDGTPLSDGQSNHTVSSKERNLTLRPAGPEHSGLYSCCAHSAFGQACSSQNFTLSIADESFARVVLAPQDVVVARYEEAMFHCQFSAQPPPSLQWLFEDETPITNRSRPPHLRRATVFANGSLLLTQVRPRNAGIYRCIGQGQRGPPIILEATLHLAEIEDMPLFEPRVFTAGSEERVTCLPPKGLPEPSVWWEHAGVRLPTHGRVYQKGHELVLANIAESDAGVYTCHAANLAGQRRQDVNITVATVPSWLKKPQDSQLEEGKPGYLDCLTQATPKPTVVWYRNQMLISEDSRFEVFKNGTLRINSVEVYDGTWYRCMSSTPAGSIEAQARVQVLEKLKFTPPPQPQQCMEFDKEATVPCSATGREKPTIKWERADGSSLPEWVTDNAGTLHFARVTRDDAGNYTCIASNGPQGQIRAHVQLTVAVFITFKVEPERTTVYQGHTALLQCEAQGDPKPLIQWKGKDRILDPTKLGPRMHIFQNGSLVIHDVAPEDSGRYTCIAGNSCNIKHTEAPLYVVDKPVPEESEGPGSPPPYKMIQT

B1: MYT11001 (antibody, V domains shown)
VH: EVQLVESGGGLVQPGGSLRLSCTASGFSLSSYAMGWVRQAPGKGLEWVGFINAGGNTYYANWAKGRFTISRDTSKNTVYLQMNSLRAEDTAVYFCARRYSRASGWYDLWGQGTLVTVSS
VL: EIVMTQSPSTLSASVGDRVIITCQASQSISSYHAWYQQKPGKAPKLLIYAASTLASGVPSRFSGSGSGAEFTLTISSLQPDDFATYYCQSYSYSSGIDYGDVFGQGTKLTVL
notes: MYT9359 LC variant; captured on anti-human Fc sensor
B2: MYT11012 (antibody, V domains shown)
VH: EVQLVESGGGLVQPGGSLRLSCTASGFSLSSYAMGWVRQAPGKGLEWVGFINAGGNTYYANWAKGRFTISRDTSKNTVYLQMNSLRAEDTAVYFCARRYSRASGWYDLWGQGTLVTVSS
VL: EIVMTQSPSTLSASVGDRVIITCQASQSISSYLAWYQQKPGKAPKLLIYAASTLASGVPSRFSGSGSGAEFTLTISSLQPDDFATYYCQSHSYSSGIDYGDVFGQGTKLTVL
notes: as for B1
B3: MYT11010 (antibody, V domains shown)
VH: EVQLVESGGGLVQPGGSLRLSCTASGFSLSSYAMGWVRQAPGKGLEWVGFINAGGNTYYANWAKGRFTISRDTSKNTVYLQMNSLRAEDTAVYFCARRYSRASGWYDLWGQGTLVTVSS
VL: EIVMTQSPSTLSASVGDRVIITCQASQSISSYLAWYQQKPGKAPKLLIYAASTLASGVPSRFSGSGSGAEFTLTISSLQPDDFATYYCHSYSYSSGIDYGDVFGQGTKLTVL
notes: as for B1
B4: MYT11018 (antibody, V domains shown)
VH: EVQLVESGGGLVQPGGSLRLSCTASGFSLSSYAMGWVRQAPGKGLEWVGFINAGGNTYYANWAKGRFTISRDTSKNTVYLQMNSLRAEDTAVYFCARRYSRASGWYDLWGQGTLVTVSS
VL: EIVMTQSPSTLSASVGDRVIITCQASQSISSYLAWYQQKPGKAPKLLIYAASTLASGVPSRFSGSGSGAEFTLTISSLQPDDFATYYCQSYSYSSGHDYGDVFGQGTKLTVL
notes: as for B1
B5: MYT11014 (antibody, V domains shown)
VH: EVQLVESGGGLVQPGGSLRLSCTASGFSLSSYAMGWVRQAPGKGLEWVGFINAGGNTYYANWAKGRFTISRDTSKNTVYLQMNSLRAEDTAVYFCARRYSRASGWYDLWGQGTLVTVSS
VL: EIVMTQSPSTLSASVGDRVIITCQASQSISSYLAWYQQKPGKAPKLLIYAASTLASGVPSRFSGSGSGAEFTLTISSLQPDDFATYYCQSYSHSSGIDYGDVFGQGTKLTVL
notes: as for B1
B6: MYT11021 (antibody, V domains shown)
VH: EVQLVESGGGLVQPGGSLRLSCTASGFSLSSYAMGWVRQAPGKGLEWVGFINAGGNTYYANWAKGRFTISRDTSKNTVYLQMNSLRAEDTAVYFCARRYSRASGWYDLWGQGTLVTVSS
VL: EIVMTQSPSTLSASVGDRVIITCQASQSISSYLAWYQQKPGKAPKLLIYAASTLASGVPSRFSGSGSGAEFTLTISSLQPDDFATYYCQSYSYSSGIDYHDVFGQGTKLTVL
notes: as for B1
B7: MYT11006 (antibody, V domains shown)
VH: EVQLVESGGGLVQPGGSLRLSCTASGFSLSSYAMGWVRQAPGKGLEWVGFINAGGNTYYANWAKGRFTISRDTSKNTVYLQMNSLRAEDTAVYFCARRYSRASGWYDLWGQGTLVTVSS
VL: EIVMTQSPSTLSASVGDRVIITCQASQSISSYLAWYQQKPGKAPKLLIYAASHLASGVPSRFSGSGSGAEFTLTISSLQPDDFATYYCQSYSYSSGIDYGDVFGQGTKLTVL
notes: as for B1
B8: MYT11013 (antibody, V domains shown)
VH: EVQLVESGGGLVQPGGSLRLSCTASGFSLSSYAMGWVRQAPGKGLEWVGFINAGGNTYYANWAKGRFTISRDTSKNTVYLQMNSLRAEDTAVYFCARRYSRASGWYDLWGQGTLVTVSS
VL: EIVMTQSPSTLSASVGDRVIITCQASQSISSYLAWYQQKPGKAPKLLIYAASTLASGVPSRFSGSGSGAEFTLTISSLQPDDFATYYCQSYHYSSGIDYGDVFGQGTKLTVL
notes: as for B1
B9: MYT11025 (antibody, V domains shown)
VH: EVQLVESGGGLVQPGGSLRLSCTASGFSLSSYAMGWVRQAPGKGLEWVGFINAGGNTYYANWAKGRFTISRDTSKNTVYLQMNSLRAEDTAVYFCARRYSRASGWYDLWGQGTLVTVSS
VL: EIVMTQSPSTLSASVGDRVIITCQASQSISSYLAWYQQKPGKAPKLLIYAASTLASGVPSRFSGSGSGAEFTLTISSLQPDDFATYYCQSYSYSSGIAYGDVFGQGTKLTVL
notes: MYT9359 LC alanine variant; captured on anti-human Fc sensor
B10: MYT11004 (antibody, V domains shown)
VH: EVQLVESGGGLVQPGGSLRLSCTASGFSLSSYAMGWVRQAPGKGLEWVGFINAGGNTYYANWAKGRFTISRDTSKNTVYLQMNSLRAEDTAVYFCARRYSRASGWYDLWGQGTLVTVSS
VL: EIVMTQSPSTLSASVGDRVIITCQASQSISSYLAWYQQKPGKAPKLLIYAHSTLASGVPSRFSGSGSGAEFTLTISSLQPDDFATYYCQSYSYSSGIDYGDVFGQGTKLTVL
notes: as for B1
B11: MYT11003 (antibody, V domains shown)
VH: EVQLVESGGGLVQPGGSLRLSCTASGFSLSSYAMGWVRQAPGKGLEWVGFINAGGNTYYANWAKGRFTISRDTSKNTVYLQMNSLRAEDTAVYFCARRYSRASGWYDLWGQGTLVTVSS
VL: EIVMTQSPSTLSASVGDRVIITCQASQSISSYLAWYQQKPGKAPKLLIYHASTLASGVPSRFSGSGSGAEFTLTISSLQPDDFATYYCQSYSYSSGIDYGDVFGQGTKLTVL
notes: as for B1
B12: MYT11023 (antibody, V domains shown)
VH: EVQLVESGGGLVQPGGSLRLSCTASGFSLSSYAMGWVRQAPGKGLEWVGFINAGGNTYYANWAKGRFTISRDTSKNTVYLQMNSLRAEDTAVYFCARRYSRASGWYDLWGQGTLVTVSS
VL: EIVMTQSPSTLSASVGDRVIITCQASQSISSYLAWYQQKPGKAPKLLIYAASTLASGVPSRFSGSGSGAEFTLTISSLQPDDFATYYCQSYSYSSGIDYGDHFGQGTKLTVL
notes: as for B1
B13: MYT11026 (antibody, V domains shown)
VH: EVQLVESGGGLVQPGGSLRLSCTASGFSLSSYAMGWVRQAPGKGLEWVGFINAGGNTYYANWAKGRFTISRDTSKNTVYLQMNSLRAEDTAVYFCARRYSRASGWYDLWGQGTLVTVSS
VL: EIVMTQSPSTLSASVGDRVIITCQASQSISSYLAWYQQKPGKAPKLLIYAASTLASGVPSRFSGSGSGAEFTLTISSLQPDDFATYYCQSYSYSSGIDYGAVFGQGTKLTVL
notes: as for B9
B14: MYT10897 (antibody, V domains shown)
VH: EVQLVESGGGLVQPGGSLRLSCTASGFSLSNYVMNWVRQAPGKGLEWVGIIHSSGSTYYASWAKGRFTISRDTSKNTVYLQMNSLRAEDTAVYFCARGLYLWGQGTLVTVSS
VL: EIVMTQSPSTLSASVGDRVIITCQSSQSVYNNNLLAWYQQKPGKAPKLLIYYTSNLASGVPSRFSGSGSGAEFTLTISSLQPDDFATYYCQGGYNGNIYAFGQGTKLTVL
notes: MYT9345 variant, substitution at VH pos 52 (H2 03), no Ala mark
B15: MYT10888 (antibody, V domains shown)
VH: EVQLVESGGGLVQPGGSLRLSCTASGFSHSNYVMNWVRQAPGKGLEWVGIIDSSGSTYYASWAKGRFTISRDTSKNTVYLQMNSLRAEDTAVYFCARGLYLWGQGTLVTVSS
VL: EIVMTQSPSTLSASVGDRVIITCQSSQSVYNNNLLAWYQQKPGKAPKLLIYYTSNLASGVPSRFSGSGSGAEFTLTISSLQPDDFATYYCQGGYNGNIYAFGQGTKLTVL
notes: MYT9345 variant, His at VH pos 29 (H1 04)

The binders below were run against T1, Human PTK7 Protein, His Tag (Acro …) (assay: BLI (Octet), antibody on anti-human Fc sensor, 50 nM PTK7; 1 = pH dependent binding).

Binding result, binds:
B1, B2, B3, B4, B5, B6, B7, B8, B9, B10, B11, B12, B13

What follows are binders tested against T2, Human PTK7 Protein, His Tag, Acro … (assay: BLI (Octet), antibody on anti-human Fc sensor, 50 nM PTK7 at pH 7.4, dissociation at pH 7.4 or 5.4; 1 = pH dependent binding relative to parent).

Binding result, binds:
B14, B15

From patent US20260209386A1 (MYTHIC THERAPEUTICS, published 2026)
